For 1 protein, Km results are on record in doi:10.1101/2020.04.03.022970v1.

Substrate in this data set: N[C@@H](Cc1c[nH]c2ccccc12)C(=O)O
The data set can be described thus: radiolabelled uptake in intact E. coli MQ614. It counts as cell-based, Halalkalibacterium halodurans. The conditions noted are these: 10-second uptake, 10 mM Tris/Mes pH 8.5, 150 mM NaCl, labelled compound.

For orientation: Km means the substrate concentration at which the rate is half of its maximum.

B1: MhsT (Halalkalibacterium halodurans C-125) (protein)
chain: SLKQQTGREQWASRLGFILAAMGSAVGLGNIWRFSYVTGENGGAAFLLVYLGFIALIGIPIVLAEFTIGRRAQSDAVGSFEKLAPGKPWKVAGLMGVAAGFLILSFYGVIAGWILFYLFNYITGQLWSAPAEGFGGFFEGFIANPTLPLFWQALFMIATIWIVAIGVKKGIERSNKILMPLLGVLLIALAIYSLTLGGAKEGLAFLFSPDWSALKDPGVYLAAISQAFFTLSLGMGALITYGSYVSKDSRLPGAAVSVAGLDTAFAIIAGIMIFPAVFALGLSPSGGPGLVFVVLPDIFDSIRLGPIVGIAFFILLGAAALSSAVSLLEVPVAYFMRKFDWSRKQAAITLGVIITLLGIPSSLSFGVLGEVTIIPGLNIFDSVDFIASSVFLPLGGMIIALFIGWGWKTSDALAESDLTDSVWGKLWILSLRFIAPIAILIVFLSAFQIFFN
As for B1, the Km amounted to 1.07 ± 0.19 µM.
